Our source for the TMT signal-to-noise ratio values is US20210063414A1, “METHODS FOR PREVENTING AND/OR TREATING BONE LOSS CONDITIONS BY MODULATING IRISIN” (Dana-Farber Cancer Institute, Inc., priority 2018, published 2021).

Test [1] has as its target T1, MLO-Y4 cell surface proteins (Mus musculus, UniProt P97350).
T1 construct: endogenous in cells; host or cells: MLO-Y4
T1 sequence (P97350 1-728): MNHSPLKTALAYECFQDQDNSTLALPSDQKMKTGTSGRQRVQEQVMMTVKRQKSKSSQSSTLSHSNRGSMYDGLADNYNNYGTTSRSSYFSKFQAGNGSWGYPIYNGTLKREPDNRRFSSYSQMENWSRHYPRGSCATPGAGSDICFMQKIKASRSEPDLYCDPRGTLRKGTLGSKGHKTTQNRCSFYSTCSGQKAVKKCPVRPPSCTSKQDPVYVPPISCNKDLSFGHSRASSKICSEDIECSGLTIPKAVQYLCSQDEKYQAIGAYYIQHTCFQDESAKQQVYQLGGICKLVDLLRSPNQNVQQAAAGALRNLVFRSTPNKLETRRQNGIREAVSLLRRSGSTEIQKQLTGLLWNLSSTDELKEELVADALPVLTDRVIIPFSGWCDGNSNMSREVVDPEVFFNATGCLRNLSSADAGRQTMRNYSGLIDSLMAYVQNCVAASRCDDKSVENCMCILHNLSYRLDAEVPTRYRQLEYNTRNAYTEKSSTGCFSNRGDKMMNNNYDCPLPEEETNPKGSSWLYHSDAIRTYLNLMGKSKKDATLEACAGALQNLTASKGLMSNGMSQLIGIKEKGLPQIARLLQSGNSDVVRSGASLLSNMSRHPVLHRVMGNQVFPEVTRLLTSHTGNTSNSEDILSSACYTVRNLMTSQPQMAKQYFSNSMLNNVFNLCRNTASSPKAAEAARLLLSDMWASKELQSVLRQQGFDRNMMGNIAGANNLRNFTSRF
As to the kind of experiment: Crosslinking/co-immunoprecipitation/mass spectrometry (TMT quantitative proteomics) to identify irisin receptors. The test is classed as binding. The following applies: co-precipitated protein Pkp1 (PKP1_MOUSE). As to the method: (§1) MLO-Y4 cells were seeded on 30×150 mm type-I collagen coated dishes as described in cell culture experiment. At 60% cell density, medium was switched to FreeStyle™ 293 Expression medium. After 4 hours incubation, the cells were chilled on ice for 10 minutes, followed by treatment of 10 nM his-tag irisin or his-tag adipsin for 20 minutes. The cells were then incubated with 1.5 mM DTSSP for 30 minutes on ice to do cross-linking, after washing with 15 ml cold PBS twice. The cross-linking was quenched by addition of a final concentration of 20 mM Tris-pH 7.5. The cells were then harvested and homogenized in 1 ml RIPA buffer containing proteaseinhibitor cocktailand phosphatase-inhibitor cocktail. Whole-cell lysates were homogenized by 10 times passages through a 22G needle fitted to a 3 ml syringe. Homogenized samples were rotated gently in cold room for 20 minutes followed by 15,000×g centrifugation for 10 minutes. After addition of a final concentration of 10 mM imidazole, supernatants were incubated with 100 μl Ni-NTA agarose for 1 hour. After centrifugation at 500×g for 1 minute, the supernatants were aspirated and 1 ml cold RIPA buffer containing 10 mM imidazole were added to the agarose. After 10 minutes rotation in cold room, the supernatants were aspirated and 1 ml cold RIPA buffer containing 30 mM imidazole were added to the agarose. After repeating the washing 3 times, 0.8 ml RIPA buffer containing 250 mM imidazole was added and the agarose was gently rotated in a cold room for 20 minutes. After centrifugation at 1000×g for 2 minutes, the supernatants were transferred to 1.5 ml tube and incubated with 100 μl 0.2% sodium deoxycholate and 100 μl 10% trichloroacetic acid in ice for 1 hour. After centrifugation at 12,000×g for 10 minutes at 4° C., the supernatants were removed and 1 ml cold acetone was added to the pellets followed by vortexing for 10 seconds. After one more washing with cold acetone, the pellets were dried at 37° C., and 39 μl PBS and 13 μl 4×NuPAGE LDS were added to the pellets with a final concentration of 5 mM DTT. Solubilized proteins were incubated at 65° C. for 20 minutes followed by incubation with a final concentration of 14 mM iodoacetamide for 45 minutes in the dark. 38 μl samples were loaded to 4-12% gradient SDS-PAGE for separation followed by Coomassie Blue staining. The gels were submitted to quantitative proteomics.
(§2) For in-gel digestions, gels were stained with Coomassie Blue and were excised into 8 equal segments for control and irisin lanes. Gel pieces were destained and dehydrated with 100% acetonitrile, vacuumed dried, and digested in 25 mM HEPES (pH 8.5) with 500 ng sequencing grade trypsin (Promega) and incubated for an overnight at 37° C. (Shevchenko et al. (1996) Anal. Chem. 68:850-858). Digests were treated with 1% formic acid and purified using C18 Stage-Tips as previously described (Rappsilber et al. (2007) Nat. Protoc. 2:1896-1906). Peptides were eluted with 70% acetonitrile and 1% formic acid, then dried using a speedvac. Isobaric labeling of digested peptides was accomplished using 6-plex tandem mass tag (TMT) reagents (Thermo Fisher Scientific, Rockford, Ill.). Reagents, 5.0 mg, were dissolved in 252 μl acetonitrile (ACN) and 5 μl of the solution was added to the digested peptides dissolved in 25 μl of 200 mM HEPES, pH 8.5. After 1 hour at room temperature, the reaction was quenched by adding 1 μl of 5% hydroxylamine. Labeled peptides were combined and acidified prior to C18 Stage-Tips desalting.
(§3) All LC-MS/MS experiments were performed on an Orbitrap Fusion™ Lumos mass spectrometer (Thermo Fisher Scientific, San Jose, Calif., USA) coupled with a Proxeon EASY-nLC™ 1200 LC pump (Thermo Fisher Scientific). Peptides were separated on a 100 μm inner diameter microcapillary column packed with 35 cm of Accucore™ C18 resin (1.8 μm, 100 Å, Thermo Fisher Scientific). […]

For test [2], the target named is T2, MLO-Y4 cell surface proteins (Mus musculus, UniProt Q8R1J9).
T2 construct: endogenous in cells; host or cells: MLO-Y4
Described as above. Type of test: binding. The following applies: co-precipitated protein Tor2a (TOR2A_MOUSE). As for the experimental part:
as §1, §2, §3

T2 sequence (Q8R1J9 27-321): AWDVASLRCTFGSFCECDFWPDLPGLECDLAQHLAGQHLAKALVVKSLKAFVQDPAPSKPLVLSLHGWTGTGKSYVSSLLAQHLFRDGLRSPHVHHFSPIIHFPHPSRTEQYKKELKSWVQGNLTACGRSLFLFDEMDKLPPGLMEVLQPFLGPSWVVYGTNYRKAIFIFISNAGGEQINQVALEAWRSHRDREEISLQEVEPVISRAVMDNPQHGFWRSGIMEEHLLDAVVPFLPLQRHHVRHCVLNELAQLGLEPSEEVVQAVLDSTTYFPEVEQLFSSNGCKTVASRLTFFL

For adipsin, the TMT signal-to-noise ratio in test [1] is on record as 98.2846; in test [2], 696.28.
